Measured values reported in US6004793.

System: AvaI restriction endonuclease (recombinant) V1M (start codon GTG changed to ATG) (Anabaena variabilis)
Assay: cleavage_in_vitro
Details: extract of ER2504 [pLG-BsoBIM, pLysS, pAII17-AvaIR]; lambda DNA digestion; recognition site not given

bacteriophage lambda DNA
activity (units/g wet cells): 6.4e+06
